Where a chain is given by its changes, count along the chain named. Names and notes keep the numbering of the source.
B1: conditionally active antibody BAP048 (antibody, V domains shown)
VH: EVQLVQSGAEVKKPGESLRISCKGSGYTFTEYTMHWVRQAPGQGLEWMGGINTNNGGTGYNQKFKGRVTISADKSISTAYLQWSSLKASDTAMYYCAHGSLYSYGNSYFDYWGQGTLVTVSS
VL: AIQLTQSPSSLSASVGDRVTITCSATSSVSYMHWYLQKPGQSPQLLIYGTSNLASGVPDRFSGSGSGTDFTLKISRVEAEDVGVYYCQQRSSYPFTFGQGTKVEIK
B2: LC-F097D (antibody, V domains shown)
VH: EVQLQQSGPELVKPGASVKISCKTSGYTFTEYTMHWMKQSHRKSLEWIGGINTNNGGTGYNQKFKGKATLTVDKSSSTAYMELRSLTSEDSAVYFCARGSLYSYGNSYFDYWGQGTLVTVSS
VL: QIVLTQSPAIMSASPGEKVTITCSATSSVSYMHWFQQKPGTSPKLWIYGTSNLASGVPARFSGSGSGTSYSLTISRMEAEDAATYYCQQRSSYPFTDGQGTKVEIK
B3: LC-Y031C (antibody, V domains shown)
VH: B2 VH
VL: B2 VL with Y31C, D97F
B4: LC-F097E (antibody, V domains shown)
VH: B2 VH
VL: B2 VL with D97E

Tests used:
human Ror2 [1] = biological target: T1, human Ror2 (human, UniProt Q01974 34-403, limits assumed); assay: ELISA
T1 construct: also called hROR2; receptor tyrosine kinase-like orphan receptor 2

cynomolgus Ror2 = biological target: T2, cynomolgus Ror2 (cynomolgus, UniProt A0A7N9D5U8 34-403); assay: ELISA
T2 construct: also called cynoROR2

mouse Ror2 = biological target: T3, mouse Ror2 (mouse, UniProt Q9Z138 34-403, limits assumed); assay: ELISA
T3 construct: also called mROR2

human Ror2 [2] = biological target: T1, human Ror2; assay: ELISA, human Ror2, pH 6.0
human Ror2 [3] = biological target: T1, human Ror2; assay: ELISA, human Ror2, pH 7.4
human Ror2 [4] = biological target: T1, human Ror2; assay: ELISA, human Ror2; ratio of signal at pH 6.0 to pH 7.4

T1 sequence (Q01974 34-403 limits assumed): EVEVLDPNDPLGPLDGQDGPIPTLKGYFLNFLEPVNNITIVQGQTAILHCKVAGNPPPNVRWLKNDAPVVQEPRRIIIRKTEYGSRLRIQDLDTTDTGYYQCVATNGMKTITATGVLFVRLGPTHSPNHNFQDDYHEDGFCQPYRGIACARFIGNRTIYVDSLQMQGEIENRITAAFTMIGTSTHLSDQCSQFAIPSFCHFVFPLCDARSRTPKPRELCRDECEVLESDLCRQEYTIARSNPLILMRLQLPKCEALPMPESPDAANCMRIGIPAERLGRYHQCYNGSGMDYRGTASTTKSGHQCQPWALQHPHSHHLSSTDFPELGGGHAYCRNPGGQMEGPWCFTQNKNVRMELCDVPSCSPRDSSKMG
T2 sequence (A0A7N9D5U8 entry or part of it): as the sequence (Q01974 34-403 limits assumed) above, with L5P, T212A, M289T, T320A counted along it
T3 sequence (Q9Z138 34-403 limits assumed): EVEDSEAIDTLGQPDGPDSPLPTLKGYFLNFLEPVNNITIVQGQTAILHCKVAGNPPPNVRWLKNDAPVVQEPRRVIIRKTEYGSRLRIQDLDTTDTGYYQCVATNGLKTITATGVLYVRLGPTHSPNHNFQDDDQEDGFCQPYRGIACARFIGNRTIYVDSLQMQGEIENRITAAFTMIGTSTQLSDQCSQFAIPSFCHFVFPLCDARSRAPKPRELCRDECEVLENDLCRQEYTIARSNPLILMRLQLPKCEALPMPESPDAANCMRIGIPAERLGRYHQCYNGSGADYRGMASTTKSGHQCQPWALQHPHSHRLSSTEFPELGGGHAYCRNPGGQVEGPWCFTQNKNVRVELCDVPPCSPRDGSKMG

Row | Binder | EC50 (human Ror2 [1]) [µg/mL] | EC50 (cynomolgus Ror2) [µg/mL] | EC50 (mouse Ror2) [µg/mL] | Affinity ELISA pH 6.0 (human Ror2 [2]) | Affinity ELISA pH 7.4 (human Ror2 [3]) | ratio, pH 6.0/7.4 (human Ror2 [4])
1 | B1 | 0.201 | 0.327 | 7.65 |  |  | 
2 | B2 |  |  |  | 0.19 | 0.107 | 1.77
3 | B3 |  |  |  | 1.34 | 0.7 | 1.92
4 | B4 |  |  |  | 0.489 | 0.215 | 2.28

Source: patent US20200002414A1 (published 2020)
